The values below come from publication PMC4615246 (Nucleus, 2015).

Common to all, as to assay: LacI/LacO array recruitment in cells
The target in assay [1] is LacI-CFP-Nup214 (human, UniProt P35658 1-2090).
Assay [2] addresses T1, LacI-CFP-Nup50 (human, UniProt Q9UKX7 1-468).
T1 sequence: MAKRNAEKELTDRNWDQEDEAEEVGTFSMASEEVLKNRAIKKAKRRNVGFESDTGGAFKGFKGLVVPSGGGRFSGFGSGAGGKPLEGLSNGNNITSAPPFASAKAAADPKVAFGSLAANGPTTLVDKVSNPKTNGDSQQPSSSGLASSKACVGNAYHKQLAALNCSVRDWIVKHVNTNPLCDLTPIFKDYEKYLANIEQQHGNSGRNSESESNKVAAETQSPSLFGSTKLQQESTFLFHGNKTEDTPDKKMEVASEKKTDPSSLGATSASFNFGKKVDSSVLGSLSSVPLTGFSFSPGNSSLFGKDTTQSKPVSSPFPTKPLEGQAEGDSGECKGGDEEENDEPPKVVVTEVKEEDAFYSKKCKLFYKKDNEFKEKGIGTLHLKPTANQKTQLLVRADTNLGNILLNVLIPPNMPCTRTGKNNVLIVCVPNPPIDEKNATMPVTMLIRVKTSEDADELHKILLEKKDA

The target of assay [3] is T2, LacI-CFP-Nup153 (human, UniProt P49790 1-1475).
T2 sequence: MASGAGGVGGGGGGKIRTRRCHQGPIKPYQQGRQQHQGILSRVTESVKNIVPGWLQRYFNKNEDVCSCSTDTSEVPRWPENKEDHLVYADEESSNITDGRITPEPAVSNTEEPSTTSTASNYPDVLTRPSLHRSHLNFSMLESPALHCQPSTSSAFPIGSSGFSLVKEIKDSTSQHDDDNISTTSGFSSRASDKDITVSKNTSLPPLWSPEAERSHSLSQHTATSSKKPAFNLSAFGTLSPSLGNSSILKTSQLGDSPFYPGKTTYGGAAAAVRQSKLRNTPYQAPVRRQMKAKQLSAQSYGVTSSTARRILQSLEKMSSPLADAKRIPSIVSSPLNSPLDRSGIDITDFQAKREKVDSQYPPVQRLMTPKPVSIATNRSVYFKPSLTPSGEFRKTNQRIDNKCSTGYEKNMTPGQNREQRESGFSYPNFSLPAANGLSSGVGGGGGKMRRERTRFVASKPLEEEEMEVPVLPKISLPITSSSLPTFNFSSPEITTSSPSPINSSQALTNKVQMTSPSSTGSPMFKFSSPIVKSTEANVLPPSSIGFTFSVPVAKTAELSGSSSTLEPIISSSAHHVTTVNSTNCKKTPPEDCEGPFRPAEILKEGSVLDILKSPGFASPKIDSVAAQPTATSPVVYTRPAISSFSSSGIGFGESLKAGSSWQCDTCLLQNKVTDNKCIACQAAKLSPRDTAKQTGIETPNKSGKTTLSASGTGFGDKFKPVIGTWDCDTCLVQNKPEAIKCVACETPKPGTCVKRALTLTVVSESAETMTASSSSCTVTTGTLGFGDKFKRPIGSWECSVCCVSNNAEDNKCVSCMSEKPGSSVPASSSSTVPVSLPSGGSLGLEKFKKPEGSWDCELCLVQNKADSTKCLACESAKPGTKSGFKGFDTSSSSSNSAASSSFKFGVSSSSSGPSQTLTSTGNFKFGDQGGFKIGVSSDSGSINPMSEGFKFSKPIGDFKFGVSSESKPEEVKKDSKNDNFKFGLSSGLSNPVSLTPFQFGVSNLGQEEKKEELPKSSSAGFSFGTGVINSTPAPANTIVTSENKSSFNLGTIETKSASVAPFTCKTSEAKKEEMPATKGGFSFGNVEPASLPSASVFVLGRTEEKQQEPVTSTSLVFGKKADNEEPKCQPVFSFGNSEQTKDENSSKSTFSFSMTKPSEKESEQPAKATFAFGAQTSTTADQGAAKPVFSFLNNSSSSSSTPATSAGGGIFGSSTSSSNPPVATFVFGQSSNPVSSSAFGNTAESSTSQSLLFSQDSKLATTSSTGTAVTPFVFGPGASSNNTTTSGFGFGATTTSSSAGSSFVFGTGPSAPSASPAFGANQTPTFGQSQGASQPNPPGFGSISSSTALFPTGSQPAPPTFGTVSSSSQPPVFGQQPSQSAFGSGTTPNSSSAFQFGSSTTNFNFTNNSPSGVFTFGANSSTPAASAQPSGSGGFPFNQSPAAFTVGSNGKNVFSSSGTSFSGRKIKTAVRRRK

Assay [4] has as its target T3, LacI-CFP-Nup133 (human, UniProt Q8WUM0 1-1156).
T3 sequence: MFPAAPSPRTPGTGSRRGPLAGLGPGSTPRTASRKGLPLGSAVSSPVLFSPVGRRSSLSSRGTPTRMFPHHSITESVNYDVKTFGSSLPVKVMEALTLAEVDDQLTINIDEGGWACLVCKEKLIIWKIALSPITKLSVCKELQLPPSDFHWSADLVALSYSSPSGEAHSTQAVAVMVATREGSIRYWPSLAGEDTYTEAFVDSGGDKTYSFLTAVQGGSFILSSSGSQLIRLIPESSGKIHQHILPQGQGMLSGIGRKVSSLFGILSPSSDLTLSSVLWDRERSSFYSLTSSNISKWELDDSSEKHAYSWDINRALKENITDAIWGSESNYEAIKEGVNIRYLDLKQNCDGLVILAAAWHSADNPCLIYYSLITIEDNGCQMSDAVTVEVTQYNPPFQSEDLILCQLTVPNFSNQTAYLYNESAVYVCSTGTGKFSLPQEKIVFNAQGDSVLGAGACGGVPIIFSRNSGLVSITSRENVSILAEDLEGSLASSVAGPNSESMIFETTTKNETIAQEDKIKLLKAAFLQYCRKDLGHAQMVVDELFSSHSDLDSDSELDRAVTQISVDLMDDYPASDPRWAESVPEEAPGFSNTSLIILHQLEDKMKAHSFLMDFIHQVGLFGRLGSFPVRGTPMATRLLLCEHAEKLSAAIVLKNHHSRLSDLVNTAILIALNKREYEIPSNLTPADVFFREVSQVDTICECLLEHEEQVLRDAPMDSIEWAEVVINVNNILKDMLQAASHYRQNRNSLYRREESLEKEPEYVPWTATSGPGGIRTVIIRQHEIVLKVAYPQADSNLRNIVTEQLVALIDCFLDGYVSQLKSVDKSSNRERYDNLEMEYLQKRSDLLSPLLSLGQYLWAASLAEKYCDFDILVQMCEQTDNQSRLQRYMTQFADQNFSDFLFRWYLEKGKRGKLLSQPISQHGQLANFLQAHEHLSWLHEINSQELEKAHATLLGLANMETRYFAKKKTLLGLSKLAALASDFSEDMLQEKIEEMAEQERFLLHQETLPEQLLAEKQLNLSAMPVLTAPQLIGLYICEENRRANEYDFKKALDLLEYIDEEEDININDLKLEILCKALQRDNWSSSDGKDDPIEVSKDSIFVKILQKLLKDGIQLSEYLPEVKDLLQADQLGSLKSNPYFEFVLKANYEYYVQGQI

Sequence of LacI-CFP-Nup214 (P35658 whole entry): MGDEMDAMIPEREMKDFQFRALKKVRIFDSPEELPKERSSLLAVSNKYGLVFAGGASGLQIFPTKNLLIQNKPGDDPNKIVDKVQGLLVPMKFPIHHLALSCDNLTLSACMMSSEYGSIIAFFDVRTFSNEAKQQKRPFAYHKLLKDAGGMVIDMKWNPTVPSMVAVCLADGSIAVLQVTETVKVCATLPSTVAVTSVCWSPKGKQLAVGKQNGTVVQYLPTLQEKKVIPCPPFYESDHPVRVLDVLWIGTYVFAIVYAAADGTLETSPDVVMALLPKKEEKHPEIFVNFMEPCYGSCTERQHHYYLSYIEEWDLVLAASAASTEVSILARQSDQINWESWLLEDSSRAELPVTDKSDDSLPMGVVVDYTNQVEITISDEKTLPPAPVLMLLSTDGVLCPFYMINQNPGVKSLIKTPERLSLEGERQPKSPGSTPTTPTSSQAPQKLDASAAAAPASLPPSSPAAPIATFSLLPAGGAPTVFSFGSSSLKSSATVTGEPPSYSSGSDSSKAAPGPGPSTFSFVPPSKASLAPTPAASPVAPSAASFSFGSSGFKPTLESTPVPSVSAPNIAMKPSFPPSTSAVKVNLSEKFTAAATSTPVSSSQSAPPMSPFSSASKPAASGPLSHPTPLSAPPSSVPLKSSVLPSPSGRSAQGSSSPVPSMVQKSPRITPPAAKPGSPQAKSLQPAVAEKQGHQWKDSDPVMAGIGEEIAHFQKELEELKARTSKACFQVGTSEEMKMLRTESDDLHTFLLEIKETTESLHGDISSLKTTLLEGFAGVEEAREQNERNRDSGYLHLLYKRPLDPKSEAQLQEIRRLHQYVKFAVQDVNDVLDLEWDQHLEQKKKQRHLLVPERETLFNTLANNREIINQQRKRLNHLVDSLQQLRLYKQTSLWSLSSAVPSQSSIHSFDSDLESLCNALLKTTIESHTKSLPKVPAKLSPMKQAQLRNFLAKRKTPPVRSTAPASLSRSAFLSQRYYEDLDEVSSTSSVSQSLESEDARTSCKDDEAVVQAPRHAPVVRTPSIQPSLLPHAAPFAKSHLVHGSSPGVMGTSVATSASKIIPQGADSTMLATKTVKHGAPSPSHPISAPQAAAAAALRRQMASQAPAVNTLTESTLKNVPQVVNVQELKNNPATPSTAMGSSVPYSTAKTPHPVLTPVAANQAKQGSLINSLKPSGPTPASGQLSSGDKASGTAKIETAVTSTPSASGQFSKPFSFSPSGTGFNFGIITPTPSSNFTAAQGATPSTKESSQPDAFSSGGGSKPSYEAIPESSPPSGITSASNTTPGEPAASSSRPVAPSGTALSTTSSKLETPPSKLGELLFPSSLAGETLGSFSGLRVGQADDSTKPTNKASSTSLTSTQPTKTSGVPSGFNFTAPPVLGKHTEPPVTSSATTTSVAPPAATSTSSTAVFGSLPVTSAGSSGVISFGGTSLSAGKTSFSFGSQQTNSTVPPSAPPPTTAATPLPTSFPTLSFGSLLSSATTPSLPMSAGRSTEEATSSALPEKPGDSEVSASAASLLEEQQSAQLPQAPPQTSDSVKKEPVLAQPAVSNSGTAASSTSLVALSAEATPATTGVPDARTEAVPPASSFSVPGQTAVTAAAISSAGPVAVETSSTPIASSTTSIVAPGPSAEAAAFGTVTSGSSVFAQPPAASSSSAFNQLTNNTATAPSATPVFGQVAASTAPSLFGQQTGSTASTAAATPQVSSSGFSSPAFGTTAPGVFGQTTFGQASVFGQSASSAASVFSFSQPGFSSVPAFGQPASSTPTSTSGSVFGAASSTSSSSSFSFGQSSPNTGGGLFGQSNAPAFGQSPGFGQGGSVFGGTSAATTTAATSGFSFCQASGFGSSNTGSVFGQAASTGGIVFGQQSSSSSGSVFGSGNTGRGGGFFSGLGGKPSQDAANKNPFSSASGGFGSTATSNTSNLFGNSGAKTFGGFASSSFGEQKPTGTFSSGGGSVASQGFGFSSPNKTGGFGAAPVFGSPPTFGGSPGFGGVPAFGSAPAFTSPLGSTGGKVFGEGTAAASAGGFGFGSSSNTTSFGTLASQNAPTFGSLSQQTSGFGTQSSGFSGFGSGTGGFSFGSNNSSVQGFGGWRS

B1: Nup98 (endogenous) (natural protein)
chain: MFNKSFGTPFGGGTGGFGTTSTFGQNTGFGTTSGGAFGTSAFGSSNNTGGLFGNSQTKPGGLFGTSSFSQPATSTSTGFGFGTSTGTANTLFGTASTGTSLFSSQNNAFAQNKPTGFGNFGTSTSSGGLFGTTNTTSNPFGSTSGSLFGPSSFTAAPTGTTIKFNPPTGTDTMVKAGVSTNISTKHQCITAMKEYESKSLEELRLEDYQANRKGPQNQVGAGTTTGLFGSSPATSSATGLFSSSTTNSGFAYGQNKTAFGTSTTGFGTNPGGLFGQQNQQTTSLFSKPFGQATTTQNTGFSFGNTSTIGQPSTNTMGLFGVTQASQPGGLFGTATNTSTGTAFGTGTGLFGQTNTGFGAVGSTLFGNNKLTTFGSSTTSAPSFGTTSGGLFGNKPTLTLGTNTNTSNFGFGTNTSGNSIFGSKPAPGTLGTGLGAGFGTALGAGQASLFGNNQPKIGGPLGTGAFGAPGFNTTTATLGFGAPQAPVALTDPNASAAQQAVLQQHINSLTYSPFGDSPLFRNPMSDPKKKEERLKPTNPAAQKALTTPTHYKLTPRPATRVRPKALQTTGTAKSHLFDGLDDDEPSLANGAFMPKKSIKKLVLKNLNNSNLFSPVNRDSENLASPSEYPENGERFSFLSKPVDENHQQDGDEDSLVSHFYTNPIAKPIPQTPESAGNKHSNSNSVDDTIVALNMRAALRNGLEGSSEETSFHDESLQDDREEIENNSYHMHPAGIILTKVGYYTIPSMDDLAKITNEKGECIVSDFTIGRKGYGSIYFEGDVNLTNLNLDDIVHIRRKEVVVYLDDNQKPPVGEGLNRKAEVTLDGVWPTDKTSRCLIKSPDRLADINYEGRLEAVSRKQGAQFKEYRPETGSWVFKVSHF
Take B1: the “percent of transfected cells showing colocalization” value amounted to 90% in assay [1], 11% in assay [2], 11% in assay [3] and 70% in assay [4].
